From paper PMC5913134, “The IL-33-PIN1-IRAK-M axis is critical for type 2 immunity in IL-33-induced allergic airway inflammation” (Nature Communications, 2018)
Residue numbers refer to the chain shown, from its start. Names and notes keep the numbering of the source.

How the values were obtained:
[1] = format: physicochemical
Description: The IRAK-M[1–119] gene was encoded into the pMAL-c2X vector with N-terminal fusion partner MBP, separated by a Factor XA cleavage site. The R56D and Y61D mutations were achieved using this vector, a single primer (forward primer, with mutations underlined: 5’ […] 3’) and the BIO RAD-iProof High-Fidelity DNA Polymerase to generate expression plasmid pMAL-c2X encoding the MBP- IRAK-M[1-119:R56D,Y61D] fusion protein, with a Factor XA cut site between MBP and IRAK-M[1-119:R56D,Y61D]. To produce uniformly ^15N-labeled MBP-IRAK-M[1-119:R56D,Y61D] in E. coli, transformed cells were grown in M9 minimal media with ^15NH4Cl as the sole nitrogen source, and were induced at OD600 by adding 0.4 mM final concentration of IPTG at 25 °C for 20~22 h. Cells were harvested by centrifugation at 3500 g, the cell pellet was dissolved in IRAK-M wash buffer (20 mM Tris, 200 mM NaCl, 1 mM EDTA, and 0.2 mM TCEP, pH 7.4), and sonicated on ice. Cell debris was removed by centrifugation, the supernatant was incubated with 5 mL of Amylose Resin (BioLabs) pre-equilibrated with IRAK-M wash buffer. The column was washed with 4 bed volumes of IRAK-M wash buffer, and the fusion protein was eluted with 2 bed volumes of elution buffer (10 mM of Maltose added to IRAK-M wash buffer). […] IRAK-M[1-119:R56D,Y61D] concentration was measured by UV absorption at 280 nm (extinction coefficient = 25105 cm^-1 M^-1). […]

PIN1-IRAK-M interaction = experiment: Co-immunoprecipitation of PIN1 and IRAK-M; format: binding; details: stably expressing DC2.4 cells, with/without IL-33
Procedure: (§1) Fig. 2 IL-33 induces IRAK-M phosphorylation and binding to PIN1. a GST PIN1 pulldown assay with DC2.4 cell extracts either non-treated or treated with IL-33 (100 ng/ml) or LPS (100ng/ml) for 1 h. […] The cells were washed with fresh medium and treated with 100 ng/ml IL-33 for the indicated times prior to IRAK-M immunoprecipitation. d DC2.4 cells stably expressing IRAK-M were treated with IL-33 and at the indicated time points were subjected to CO-IP using anti-PIN1 antibody and blotted for IRAK-M. e HEK293 cells were transfected with different IRAK-M constructs expressing the N’ terminal domain (aa1-220), the middle portion of the protein (aa220-440) or the C’ terminal domain (aa 440-630), and then treated with IL-33, followed by CO-IP for PIN1. f DC2.4 cells stably expressing IRAK-M were treated with IL-33 and subjected to GST or GST-PIN1 pull-down.
Cells from one 10-cm dish were homogenized in lysis buffer containing 150 mM NaCl, 1% NP-40, 0.5% deoxycholate, 0.1% SDS, 50 mM Tris-HCl (pH 7.7), 1 mM phenylmethylsulfonyl fluoride (PMSF), 1 mM dithiothreitol, and protease inhibitors. Clarified supernatants were incubated with pre incubated immobilized beads rProtein A agarose beads (RepliGen) premixed with PIN1, GFP or IRAK-M antibody or, as a control, IgG overnight at 4 °C. The beads were washed extensively with lysis buffer before elution in SDS sample buffer.

IRAK-M [2] = experiment: IRAK-M protein stability, cycloheximide chase; format: cell-based; details: mutant IRAK-M, WT MEFs; reproduced in DC2.4 cells
Procedure: Fig. 4 PIN1 increases IRAK-M protein stabilization. a After IRAK-M and GFP were coexpressed in WT and PIN1 KO MEFs for 24 h, cells were split equally into 5 dishes. 24 h later cells were treated with cyclohexamide and harvested to monitor IRAK-M, GFP and PIN1 levels at the time points indicated. b Quantification of 3 independent experiments as in a. c WT MEFs stably expressing the TET on inducible short hairpin for PIN1 (shPin1) or pLKO as a control, were expressed with IRAK-M, followed by induction with Doxycycline for 18 h prior to the cyclohexamide chase. d Quantification of 3 independent experiments as in c. e BMDCs from WT or PIN1 KO mice were treated with IL-33 and the levels of IRAK-M were monitored at different time points after induction. f Quantification of 3 independent experiments as in e. g PIN1 KO MEFs were expressed with IRAK-M alone or in combination with PIN1 or its mutants W34A or K63A for 24 h, followed by the cyclohexamide chase to assay IRAK-M stability. h Quantification of 3 independent experiments as in g. i IRAK-M or its different mutants; S110A, S110E and P111A were expressed in WT MEFs, followed by the cyclohexamide chase to assay IRAK-M stability. j Quantification of 3 independent experiments as in i. k IRAK-M or its different mutants were stably expressed in DC2.4 cells, followed by the cyclohexamide chase to monitor IRAK-M stability. l Quantification of 3 independent experiments as in k. The data were analyzed by a Student’s two-tailed t test and the values are reported as mean ± standard errors of the means (SEM). *- statistical significance (P < 0.05), **- significance (P < 0.01)

IRAK-M [3] = experiment: IRAK-M nuclear localization in DC2.4 cells; format: cell-based, C57BL/6; details: stably expressed in DC2.4 cells
Procedure: Suppl em enta ry Figur e 3. a DAPI IR AK-M Pin1 Mergeb […]
Supplementary Figure 3. Pin1 targets IRAK-M and promotes its nuclear translocation upon IL-33 induction.
(a) Immunostaining for IRAK-M and Pin1 in DC2.4 cells before and after IL-33 treatment. ( b) DC2.4 cells were treated with IL-33 and subjected to nuclear/cytoplasmic fractionation, followed by Western blot for IRAK-M with actin as a cytoplasmic marker and Fox1 as a nuclear marker. C- cytoplasmic; N- Nuclear.
(c) Cytospin slides from BALF of the treated WT mice as indicated, were co stained for DC205 and IRAK-M.
(d) IRAK-M or its mutants S110E or P111A were stably expressed in DC2.4 cells and their localization and Pin1 localization were monitored by immunostaining. (e) GFP-IRAK-M were expressed in Pin1 KO MEFs either with or without RFP-Pin1 as indicated, and their localization was monitored. Scale = 50 µm.
(also on this page, place not known: Control +IL-33: b DAPIe MergeGFP RFP GFP- GFP-IRAK-M/ RFP MergeIRAK-M Pin1DAPI ControlIL-33 Mergec Supplementary Figure IRAK-M IRAK-M (b) IL-33 IRAK-M IRAK-M Pin1) […]

IRAK-M [4] = experiment: IRAK-M phosphorylation in DC2.4 cells; format: cell-based, C57BL/6; details: DC2.4 stably expressing mutant, IL-33
Procedure: as §1

WT and PIN1 KO mice = experiment: OVA-induced allergic asthma in mice; format: in vivo, mouse; details: OVA-challenged PIN1 KO vs WT mice
Procedure: Fig. 1 PIN1 is required for IL-33 to induces TH2 polarization and allergic inflammation. a 5 and15 min after IL-33 treatment of DC2.4 cells, cells were extracted and PIN1 activity was measured as previously described. Inset: PIN1 was immune precipitated and immune blotted for PIN1 or Ser71 phosphorylation as indicated. b WT and PIN1 KO MEF’s were treated with different concentrations of IL-33 for 24 h and the medium was measured for IL-6 secretion. c WT and PIN1 KO mice were treated with 200 ng/mice/day for 4 consecutive days and the BALF was examined for IL-4, 5, 6 and 13 by ELISA. d H&E staining representative of lungs from WT and PIN1 KO mice treated with IL-33 (n = 4). Scale bar = 50 µm. e Total cell number in the BALF of WT and PIN1 KO mice was measured using HEMAVET multispecies hematology analyzer. f Eosinophil cell number in the BALF of WT and PIN1 KO mice was measured using HEMAVET multispecies hematology analyzer. g Representative H&E staining of lung sections from WT and PIN1 KO mice after OVA-induced allergic asthma (n = 4). Scale bar = 50 µm. h IL-4, -5, -13 and IL-33 levels in the BALF of WT and PIN1 KO mice after OVA-induced allergic asthma. The groups were compared using Mann-Whitney U test (i) Total cell number in the BALF of WT and PIN1 KO mice before and after OVA-induced allergic asthma. The data were analyzed by a Student’s two-tailed t test unless stated otherwise, and the values are reported as mean ± standard errors of the means (SEM). *- statistical significance (P < 0.05), **- significance (P < 0.01)

B1: IRAK-M[1–119]: recombinant IRAK-M residues 1–119 including the DD (protein, UniProt Q8K4B2 1-119, looked up, fragment)
chain: MAGRCGARGALSPQLLLFDLPPALLGELCGILDSCDGPLGWRGLAERLSNSWLDVRHIEKYVNQGKSGTRELLWSWAQKNKTIGDLLEVLQDMGHQRAIHLIINYGVSWTPSVQTHHEL
With B1 the “solubility of cleaved protein” value [1] was “precipitated under all conditions explored”.

B2: S110E: IRAK-M full protein phosphomimetic mutant S110E (protein)
chain: MAGNCGARGALSAHTLLFDLPPALLGELCAVLDSCDGALGWRGLAERLSSSWLDVRHIEKYVDQGKSGTRELLWSWAQKNKTIGDLLQVLQEMGHRRAIHLITNYGAVLEPSEKSYQEGGFPNILFKETANVTVDNVLIPEHNEKGILLKSSISFQNIIEGTRNFHKDFLIGEGEIFEVYRVEIQNLTYAVKLFKQEKKMQCKKHWKRFLSELEVLLLFHHPNILELAAYFTETEKFCLIYPYMRNGTLFDRLQCVGDTAPLPWHIRIGILIGISKAIHYLHNVQPCSVICGSISSANILLDDQFQPKLTDFAMAHFRSHLEHQSCTINMTSSSSKHLWYMPEEYIRQGKLSIKTDVYSFGIVIMEVLTGCRVVLDDPKHIQLRDLLRELMEKRGLDSCLSFLDKKVPPCPRNFSAKLFCLAGRCAATRAKLRPSMDEVLNTLESTQASLYFAEDPPTSLKSFRCPSPLFLENVPSIPVEDDESQNNNLLPSDEGLRIDRMTQKTPFECSQSEVMFLSLDKKPESKRNEEACNMPSSSCEESWFPKYIVPSQDLRPYKVNIDPSSEAPGHSCRSRPVESSCSSKFSWDEYEQYKKE
For B2, the “PIN1 interaction (CO-IP), IRAK-M mutants” value (PIN1-IRAK-M interaction) was “much weaker PIN1 interaction was evident before IL-33 stimulation”, the “resistance of IRAK-M to degradation” value (IRAK-M [2]) was “completely resistant to degradation” and the “nuclear localization of mutant IRAK-M” value (IRAK-M [3]) was “higher nuclear localization”.

B3: P111A: IRAK-M mutant that eliminates the PIN1 consensus motif (protein)
chain: B2 chain with E110S, P111A
With B3 the “PIN1 interaction (CO-IP), IRAK-M mutants” value (PIN1-IRAK-M interaction) was “totally abolished”, the “IRAK-M phosphorylation (mutant)” value (IRAK-M [4]) was “totally abolished” and the “decrease of IRAK-M protein stability” value (IRAK-M [2]) was ~ 50%.

B4: OVA: ovalbumin (OVA), inducer of model of allergic asthma (protein, UniProt P01012 2-386, looked up)
Ovalbumin: GSIGAASMEFCFDVFKELKVHHANENIFYCPIAIMSALAMVYLGAKDSTRTQINKVVRFDKLPGFGDSIEAQCGTSVNVHSSLRDILNQITKPNDVYSFSLASRLYAEERYPILPEYLQCVKELYRGGLEPINFQTAADQARELINSWVESQTNGIIRNVLQPSSVDSQTAMVLVNAIVFKGLWEKAFKDEDTQAMPFRVTEQESKPVQMMYQIGLFRVASMASEKMKILELPFASGTMSMLVLLPDEVSGLEQLESIINFEKLTEWTSSNVMEERKIKVYLPRMKMEEKYNLTSVLMAMGITDVFSSSANLSGISSAESLKISQAVHAAHAEINEAGREVVGSAEAGVDAASVSEEFRADHPFLFCIKHIATNAVLFFGRCVSP
In the case of B4, the “BALF total cells count” value (WT and PIN1 KO mice) is reported as “reduced BALF total cells count”, the “TH2 cytokine levels in BALF” value (WT and PIN1 KO mice) is reported as “reduced TH2 cytokine levels” and the lung inflammation (WT and PIN1 KO mice) is reported as “reduced lung inflammation”.
